Values of other authors, collected in US20210244796A1, “COMPOSITIONS IN THE FORM OF AN INJECTABLE AQUEOUS SOLUTION COMPRISING AMYLIN AN AMYLIN RECEPTOR AGONIST OR AN AMYLIN ANALOG, AT LEAST ONE IONIC SPECIES AND AN AMPHOIPHILIC COMPOUNDS CONTAINING HYDRIPHOBIC RADICALS” (ADOCIA, priority 2018, published 2021).
Read-outs that look alike come from different tables or passages of the source.

| Compound | pH of the solution above which the peptide is described as shining (pramlintide formulated at acidic pH) | Time for which amylin is stable (acidic pH) | Time for which amylin is stable (neutral pH) |
| --- | --- | --- | --- |
| CC[C@H](C)[C@H](NC(=O)[C@@H]1CCCN1C(=O)CNC(=O)[C@H](Cc1ccccc1)NC(=O)[C@H](CC(N)=O)NC(=O)[C@H](CC(N)=O)NC(=O)[C@H](CO)NC(=O)[C@H](CO)NC(=O)[C@H](Cc1c[nH]cn1)NC(=O)[C@@H](NC(=O)[C@H](CC(C)C)NC(=O)[C@H](Cc1ccccc1)NC(=O)[C@H](CC(N)=O)NC(=O)[C@H](C)NC(=O)[C@H](CC(C)C)NC(=O)[C@H](CCCNC(=N)N)NC(=O)[C@H](CCC(N)=O)NC(=O)[C@@H](NC(=O)[C@H](C)NC(=O)[C@@H]1CSSC[C@H](NC(=O)[C@@H](N)CCCCN)C(=O)N[C@@H](CC(N)=O)C(=O)N[C@@H]([C@@H](C)O)C(=O)N[C@@H](C)C(=O)N[C@@H]([C@@H](C)O)C(=O)N1)[C@@H](C)O)C(C)C)C(=O)N[C@@H](CC(C)C)C(=O)N1CCC[C@H]1C(=O)N1CCC[C@H]1C(=O)N[C@H](C(=O)N[C@@H](CC(N)=O)C(=O)N[C@H](C(=O)NCC(=O)N[C@@H](CO)C(=O)N[C@@H](CC(N)=O)C(=O)N[C@H](C(=O)N[C@@H](Cc1ccc(O)cc1)C(N)=O)[C@@H](C)O)C(C)C)[C@@H](C)O [pramlintide, reference compound] | greater than 5.5 | – | – |
| Amylin: 37 amino acid peptide co-stored and co-secreted with insulin (KCNTATCATQRLANFLVHSSNNFGAILSSTNVGSNTY; Islet amyloid polypeptide; UniProt P10997 34-70, looked up) | – | about fifteen | less than one |
